Measurements: article PMC12416549 (2024)

T1: TNFR1 (Homo sapiens, UniProt P19438)
T1 chain: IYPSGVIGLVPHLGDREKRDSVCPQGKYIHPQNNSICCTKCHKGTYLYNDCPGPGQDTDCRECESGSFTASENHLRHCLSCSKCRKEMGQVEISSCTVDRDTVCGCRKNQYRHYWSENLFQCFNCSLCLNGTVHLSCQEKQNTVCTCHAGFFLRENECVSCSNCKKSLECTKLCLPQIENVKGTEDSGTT


Target: T1, TNFR1
Assay: yeast display SC50

| apparent Kd (screen) [nM] | Binder |
| --- | --- |
| 0.446 | K33H (designed binder) SMEEEVEKAAKEYEKKKKEAIEKHLEKLKAKDHEAAERFLKELEEAAKEYAKDEAKTMSEEEAKRRAKKYKEKVLLSELSEEEQKEIKEAEEKLVRTILKYVEEAAK |
| 0.718 | K68R (designed binder) SMEEEVEKAAKEYEKKKKEAIEKHLEKLKAKDKEAAERFLKELEEAAKEYAKDEAKTMSEEEAKRRARKYKEKVLLSELSEEEQKEIKEAEEKLVRTILKYVEEAAK |
| 0.869 | E22L (designed binder) SMEEEVEKAAKEYEKKKKEAILKHLEKLKAKDKEAAERFLKELEEAAKEYAKDEAKTMSEEEAKRRAKKYKEKVLLSELSEEEQKEIKEAEEKLVRTILKYVEEAAK |
| 1.4 | K68T (designed binder) SMEEEVEKAAKEYEKKKKEAIEKHLEKLKAKDKEAAERFLKELEEAAKEYAKDEAKTMSEEEAKRRATKYKEKVLLSELSEEEQKEIKEAEEKLVRTILKYVEEAAK |
| 0.593 | E81Q (designed binder) SMEEEVEKAAKEYEKKKKEAIEKHLEKLKAKDKEAAERFLKELEEAAKEYAKDEAKTMSEEEAKRRAKKYKEKVLLSELSQEEQKEIKEAEEKLVRTILKYVEEAAK |
| 3 | S77N (designed binder) SMEEEVEKAAKEYEKKKKEAIEKHLEKLKAKDKEAAERFLKELEEAAKEYAKDEAKTMSEEEAKRRAKKYKEKVLLNELSEEEQKEIKEAEEKLVRTILKYVEEAAK |
| 0.446 | L94H (designed binder) SMEEEVEKAAKEYEKKKKEAIEKHLEKLKAKDKEAAERFLKELEEAAKEYAKDEAKTMSEEEAKRRAKKYKEKVLLSELSEEEQKEIKEAEEKHVRTILKYVEEAAK |
| 0.0802 | T57Y (designed binder) SMEEEVEKAAKEYEKKKKEAIEKHLEKLKAKDKEAAERFLKELEEAAKEYAKDEAKYMSEEEAKRRAKKYKEKVLLSELSEEEQKEIKEAEEKLVRTILKYVEEAAK |
| 1.27 | K18H (designed binder) SMEEEVEKAAKEYEKKKHEAIEKHLEKLKAKDKEAAERFLKELEEAAKEYAKDEAKTMSEEEAKRRAKKYKEKVLLSELSEEEQKEIKEAEEKLVRTILKYVEEAAK |
| 0.539 | E82F (designed binder) SMEEEVEKAAKEYEKKKKEAIEKHLEKLKAKDKEAAERFLKELEEAAKEYAKDEAKTMSEEEAKRRAKKYKEKVLLSELSEFEQKEIKEAEEKLVRTILKYVEEAAK |
| 2.73 | V102I (designed binder) SMEEEVEKAAKEYEKKKKEAIEKHLEKLKAKDKEAAERFLKELEEAAKEYAKDEAKTMSEEEAKRRAKKYKEKVLLSELSEEEQKEIKEAEEKLVRTILKYIEEAAK |
| 1.27 | K52C (designed binder) SMEEEVEKAAKEYEKKKKEAIEKHLEKLKAKDKEAAERFLKELEEAAKEYACDEAKTMSEEEAKRRAKKYKEKVLLSELSEEEQKEIKEAEEKLVRTILKYVEEAAK |
| 2.73 | E45S (designed binder) SMEEEVEKAAKEYEKKKKEAIEKHLEKLKAKDKEAAERFLKELESAAKEYAKDEAKTMSEEEAKRRAKKYKEKVLLSELSEEEQKEIKEAEEKLVRTILKYVEEAAK |
| 10.4 | E3M (designed binder) SMMEEVEKAAKEYEKKKKEAIEKHLEKLKAKDKEAAERFLKELEEAAKEYAKDEAKTMSEEEAKRRAKKYKEKVLLSELSEEEQKEIKEAEEKLVRTILKYVEEAAK |
| 0.718 | K93M (designed binder) SMEEEVEKAAKEYEKKKKEAIEKHLEKLKAKDKEAAERFLKELEEAAKEYAKDEAKTMSEEEAKRRAKKYKEKVLLSELSEEEQKEIKEAEEMLVRTILKYVEEAAK |
| 7.07 | E42N (designed binder) SMEEEVEKAAKEYEKKKKEAIEKHLEKLKAKDKEAAERFLKNLEEAAKEYAKDEAKTMSEEEAKRRAKKYKEKVLLSELSEEEQKEIKEAEEKLVRTILKYVEEAAK |
| 0.956 | K100N (designed binder) SMEEEVEKAAKEYEKKKKEAIEKHLEKLKAKDKEAAERFLKELEEAAKEYAKDEAKTMSEEEAKRRAKKYKEKVLLSELSEEEQKEIKEAEEKLVRTILNYVEEAAK |
| 18.3 | K16P (designed binder) SMEEEVEKAAKEYEKPKKEAIEKHLEKLKAKDKEAAERFLKELEEAAKEYAKDEAKTMSEEEAKRRAKKYKEKVLLSELSEEEQKEIKEAEEKLVRTILKYVEEAAK |

| apparent Kd (screen) [nM] | Binder |
| --- | --- |
| 11.4 | A30P (designed binder) SMEEEVEKAAKEYEKKKKEAIEKHLEKLKPKDKEAAERFLKELEEAAKEYAKDEAKTMSEEEAKRRAKKYKEKVLLSELSEEEQKEIKEAEEKLVRTILKYVEEAAK |
| 1.05 | K68A (designed binder) SMEEEVEKAAKEYEKKKKEAIEKHLEKLKAKDKEAAERFLKELEEAAKEYAKDEAKTMSEEEAKRRAAKYKEKVLLSELSEEEQKEIKEAEEKLVRTILKYVEEAAK |
| 0.405 | Y101A (designed binder) SMEEEVEKAAKEYEKKKKEAIEKHLEKLKAKDKEAAERFLKELEEAAKEYAKDEAKTMSEEEAKRRAKKYKEKVLLSELSEEEQKEIKEAEEKLVRTILKAVEEAAK |
| 0.653 | K64N (designed binder) SMEEEVEKAAKEYEKKKKEAIEKHLEKLKAKDKEAAERFLKELEEAAKEYAKDEAKTMSEEEANRRAKKYKEKVLLSELSEEEQKEIKEAEEKLVRTILKYVEEAAK |
| 9.41 | E42Q (designed binder) SMEEEVEKAAKEYEKKKKEAIEKHLEKLKAKDKEAAERFLKQLEEAAKEYAKDEAKTMSEEEAKRRAKKYKEKVLLSELSEEEQKEIKEAEEKLVRTILKYVEEAAK |
| 0.49 | E12G (designed binder) SMEEEVEKAAKGYEKKKKEAIEKHLEKLKAKDKEAAERFLKELEEAAKEYAKDEAKTMSEEEAKRRAKKYKEKVLLSELSEEEQKEIKEAEEKLVRTILKYVEEAAK |
| 0.956 | K27T (designed binder) SMEEEVEKAAKEYEKKKKEAIEKHLETLKAKDKEAAERFLKELEEAAKEYAKDEAKTMSEEEAKRRAKKYKEKVLLSELSEEEQKEIKEAEEKLVRTILKYVEEAAK |
| 0.593 | S1N (designed binder) NMEEEVEKAAKEYEKKKKEAIEKHLEKLKAKDKEAAERFLKELEEAAKEYAKDEAKTMSEEEAKRRAKKYKEKVLLSELSEEEQKEIKEAEEKLVRTILKYVEEAAK |
| 2.48 | S77G (designed binder) SMEEEVEKAAKEYEKKKKEAIEKHLEKLKAKDKEAAERFLKELEEAAKEYAKDEAKTMSEEEAKRRAKKYKEKVLLGELSEEEQKEIKEAEEKLVRTILKYVEEAAK |
| 10.4 | A10F (designed binder) SMEEEVEKAFKEYEKKKKEAIEKHLEKLKAKDKEAAERFLKELEEAAKEYAKDEAKTMSEEEAKRRAKKYKEKVLLSELSEEEQKEIKEAEEKLVRTILKYVEEAAK |
| 2.25 | V6F (designed binder) SMEEEFEKAAKEYEKKKKEAIEKHLEKLKAKDKEAAERFLKELEEAAKEYAKDEAKTMSEEEAKRRAKKYKEKVLLSELSEEEQKEIKEAEEKLVRTILKYVEEAAK |
| 3 | S80W (designed binder) SMEEEVEKAAKEYEKKKKEAIEKHLEKLKAKDKEAAERFLKELEEAAKEYAKDEAKTMSEEEAKRRAKKYKEKVLLSELWEEEQKEIKEAEEKLVRTILKYVEEAAK |
| 2.73 | A46T (designed binder) SMEEEVEKAAKEYEKKKKEAIEKHLEKLKAKDKEAAERFLKELEETAKEYAKDEAKTMSEEEAKRRAKKYKEKVLLSELSEEEQKEIKEAEEKLVRTILKYVEEAAK |
| 8.56 | K93P (designed binder) SMEEEVEKAAKEYEKKKKEAIEKHLEKLKAKDKEAAERFLKELEEAAKEYAKDEAKTMSEEEAKRRAKKYKEKVLLSELSEEEQKEIKEAEEPLVRTILKYVEEAAK |
| 13.8 | S59W (designed binder) SMEEEVEKAAKEYEKKKKEAIEKHLEKLKAKDKEAAERFLKELEEAAKEYAKDEAKTMWEEEAKRRAKKYKEKVLLSELSEEEQKEIKEAEEKLVRTILKYVEEAAK |
| 2.05 | A47S (designed binder) SMEEEVEKAAKEYEKKKKEAIEKHLEKLKAKDKEAAERFLKELEEASKEYAKDEAKTMSEEEAKRRAKKYKEKVLLSELSEEEQKEIKEAEEKLVRTILKYVEEAAK |
| 0.49 | M2P (designed binder) SPEEEVEKAAKEYEKKKKEAIEKHLEKLKAKDKEAAERFLKELEEAAKEYAKDEAKTMSEEEAKRRAKKYKEKVLLSELSEEEQKEIKEAEEKLVRTILKYVEEAAK |
